B1: S. cerevisiae Abp1 (full length; SH3 domain 535-592 mutated) / Hua2 (parent complex)
chain 1: MALEPIDYTTHSREIDAEYLKIVRGSDPDTTWLIISPNAKKEYEPESTGSSFHDFLQLFDETKVQYGLARVSPPGSDVEKIIIIGWCPDSAPLKTRASFAANFAAVANNLFKGYHVQVTARDEDDLDENELLMKISNAAGARYSIQTSSKQQGKASTPPVKKSFTPSKSPAPVSKKEPVKTPSPAPAAKISSRVNDNNDDDDWNEPELKERDFDQAPLKPNQSSYKPIGKIDLQKVIAEEKAKEDPRLVQKPTAAGSKIDPSSDIANLKNESKLKRDSEFNSFLGTTKPPSMTESSLKNDDDKVIKGFRNEKSPAQLWAERKAKQNSGNAETKAEAPKPEVPEDEPEGEPDVKDLKSKFEGLAASEKEEEEMENKFAPPPKKSEPTIISPKPFSKPQEPVKAEEAEQPKTDYKKIGNPLPGMHIEADNEEEPEENDDDWDDDEDEAAQPPLPSRNVASGAPVQKEEPEQEEIAPSLPSRNSIPAPKQEEAPEQAPEEEIEEEAEEAAPQLPSRSSAAPPPPPRRATPEKKPKENPWATAEYDYDAAEDNELTFVENDKIINIEFVDDDWWLGELEKDGSKGLFPSNYVSLGN
chain 2: MQQTKFGKMYLDHDSVVEYSEDEIVEADRITLGYKKRLSMIENQMRHLLEDFSLDVQQIEPILADLQKYYDAFLQLLQKRNKSLQCKRSTHQPVPSPMNSQTSTNAKVNLSGKLMKFQLNSVQKFDEENILRILQNKIEFEHYFQIDKGKKQKVLLLAVYQCLNGPTRLHKVLNIEGIIHNNSIRTILGKQVSSSKWTVFLYDVKLVLLAHRQDVPNLETSKMIVRYGDLFPCALYFKDHTAY

Variants of: B1
Assay: DHFR protein-fragment complementation in yeast (Abp1-DHFR F[1,2] x partner-DHFR F[3]), deep mutational scanning, second methotrexate selection vs reference; S. cerevisiae, DHFR-PCA selection in liquid with methotrexate at 30 C, two 72 h selections (the score uses the second); reference = the pre-selection culture

screen value	Variant
0.493 DMS score: mean over two replicates of log2(f_test/f_ref + 0.5)/ln 2, minus the synonymous-codon median (not a log2 …	chain 1 P535W
0.21 DMS score: mean over two replicates of log2(f_test/f_ref + 0.5)/ln 2, minus the synonymous-codon median (not a log2 …	chain 1 I562V
-1.48 DMS score: mean over two replicates of log2(f_test/f_ref + 0.5)/ln 2, minus the synonymous-codon median (not a log2 …	chain 1 Y541E
-1.91 DMS score: mean over two replicates of log2(f_test/f_ref + 0.5)/ln 2, minus the synonymous-codon median (not a log2 …	chain 1 Y541N
-1.01 DMS score: mean over two replicates of log2(f_test/f_ref + 0.5)/ln 2, minus the synonymous-codon median (not a log2 …	chain 1 Y541H
0.0303 DMS score: mean over two replicates of log2(f_test/f_ref + 0.5)/ln 2, minus the synonymous-codon median (not a log2 …	chain 1 Y541F
-1.73 DMS score: mean over two replicates of log2(f_test/f_ref + 0.5)/ln 2, minus the synonymous-codon median (not a log2 …	chain 1 N586D
0.313 DMS score: mean over two replicates of log2(f_test/f_ref + 0.5)/ln 2, minus the synonymous-codon median (not a log2 …	chain 1 N556Y
0.279 DMS score: mean over two replicates of log2(f_test/f_ref + 0.5)/ln 2, minus the synonymous-codon median (not a log2 …	chain 1 N556T
0.625 DMS score: mean over two replicates of log2(f_test/f_ref + 0.5)/ln 2, minus the synonymous-codon median (not a log2 …	chain 1 N556G
0.175 DMS score: mean over two replicates of log2(f_test/f_ref + 0.5)/ln 2, minus the synonymous-codon median (not a log2 …	chain 1 N556D
-0.482 DMS score: mean over two replicates of log2(f_test/f_ref + 0.5)/ln 2, minus the synonymous-codon median (not a log2 …	chain 1 N556L
0.444 DMS score: mean over two replicates of log2(f_test/f_ref + 0.5)/ln 2, minus the synonymous-codon median (not a log2 …	chain 1 N556C
-0.361 DMS score: mean over two replicates of log2(f_test/f_ref + 0.5)/ln 2, minus the synonymous-codon median (not a log2 …	chain 1 N556A
0.369 DMS score: mean over two replicates of log2(f_test/f_ref + 0.5)/ln 2, minus the synonymous-codon median (not a log2 …	chain 1 L582Y
0.141 DMS score: mean over two replicates of log2(f_test/f_ref + 0.5)/ln 2, minus the synonymous-codon median (not a log2 …	chain 1 L582W
-0.17 DMS score: mean over two replicates of log2(f_test/f_ref + 0.5)/ln 2, minus the synonymous-codon median (not a log2 …	chain 1 A539C
-0.729 DMS score: mean over two replicates of log2(f_test/f_ref + 0.5)/ln 2, minus the synonymous-codon median (not a log2 …	chain 1 I560N
-0.964 DMS score: mean over two replicates of log2(f_test/f_ref + 0.5)/ln 2, minus the synonymous-codon median (not a log2 …	chain 1 I560S
-0.196 DMS score: mean over two replicates of log2(f_test/f_ref + 0.5)/ln 2, minus the synonymous-codon median (not a log2 …	chain 1 I560L
0.784 DMS score: mean over two replicates of log2(f_test/f_ref + 0.5)/ln 2, minus the synonymous-codon median (not a log2 …	chain 1 D542G
0.542 DMS score: mean over two replicates of log2(f_test/f_ref + 0.5)/ln 2, minus the synonymous-codon median (not a log2 …	chain 1 D542Q
0.456 DMS score: mean over two replicates of log2(f_test/f_ref + 0.5)/ln 2, minus the synonymous-codon median (not a log2 …	chain 1 D542S
0.0251 DMS score: mean over two replicates of log2(f_test/f_ref + 0.5)/ln 2, minus the synonymous-codon median (not a log2 …	chain 1 D542E
0.905 DMS score: mean over two replicates of log2(f_test/f_ref + 0.5)/ln 2, minus the synonymous-codon median (not a log2 …	chain 1 D542P

screen value	Variant
0.327 DMS score: mean over two replicates of log2(f_test/f_ref + 0.5)/ln 2, minus the synonymous-codon median (not a log2 …	chain 1 D542A
0.409 DMS score: mean over two replicates of log2(f_test/f_ref + 0.5)/ln 2, minus the synonymous-codon median (not a log2 …	chain 1 G591S
0.673 DMS score: mean over two replicates of log2(f_test/f_ref + 0.5)/ln 2, minus the synonymous-codon median (not a log2 …	chain 1 G591A
0.531 DMS score: mean over two replicates of log2(f_test/f_ref + 0.5)/ln 2, minus the synonymous-codon median (not a log2 …	chain 1 G591Q
0.941 DMS score: mean over two replicates of log2(f_test/f_ref + 0.5)/ln 2, minus the synonymous-codon median (not a log2 …	chain 1 G591N
0.63 DMS score: mean over two replicates of log2(f_test/f_ref + 0.5)/ln 2, minus the synonymous-codon median (not a log2 …	chain 1 G591T
-0.547 DMS score: mean over two replicates of log2(f_test/f_ref + 0.5)/ln 2, minus the synonymous-codon median (not a log2 …	chain 1 G591W
-0.642 DMS score: mean over two replicates of log2(f_test/f_ref + 0.5)/ln 2, minus the synonymous-codon median (not a log2 …	chain 1 L551M
0.0382 DMS score: mean over two replicates of log2(f_test/f_ref + 0.5)/ln 2, minus the synonymous-codon median (not a log2 …	chain 1 S589W
0.299 DMS score: mean over two replicates of log2(f_test/f_ref + 0.5)/ln 2, minus the synonymous-codon median (not a log2 …	chain 1 S589C
0.62 DMS score: mean over two replicates of log2(f_test/f_ref + 0.5)/ln 2, minus the synonymous-codon median (not a log2 …	chain 1 W569F
-1.08 DMS score: mean over two replicates of log2(f_test/f_ref + 0.5)/ln 2, minus the synonymous-codon median (not a log2 …	chain 1 E563A
-1.2 DMS score: mean over two replicates of log2(f_test/f_ref + 0.5)/ln 2, minus the synonymous-codon median (not a log2 …	chain 1 E563T
-0.477 DMS score: mean over two replicates of log2(f_test/f_ref + 0.5)/ln 2, minus the synonymous-codon median (not a log2 …	chain 1 E563V
0.0054 DMS score: mean over two replicates of log2(f_test/f_ref + 0.5)/ln 2, minus the synonymous-codon median (not a log2 …	chain 1 E563D
-2.79 DMS score: mean over two replicates of log2(f_test/f_ref + 0.5)/ln 2, minus the synonymous-codon median (not a log2 …	chain 1 S585H
0.35 DMS score: mean over two replicates of log2(f_test/f_ref + 0.5)/ln 2, minus the synonymous-codon median (not a log2 …	chain 1 N592T
0.019 DMS score: mean over two replicates of log2(f_test/f_ref + 0.5)/ln 2, minus the synonymous-codon median (not a log2 …	chain 1 N592M
0.212 DMS score: mean over two replicates of log2(f_test/f_ref + 0.5)/ln 2, minus the synonymous-codon median (not a log2 …	chain 1 N592F
0.855 DMS score: mean over two replicates of log2(f_test/f_ref + 0.5)/ln 2, minus the synonymous-codon median (not a log2 …	chain 1 N592Q
-0.398 DMS score: mean over two replicates of log2(f_test/f_ref + 0.5)/ln 2, minus the synonymous-codon median (not a log2 …	chain 1 N592D
0.381 DMS score: mean over two replicates of log2(f_test/f_ref + 0.5)/ln 2, minus the synonymous-codon median (not a log2 …	chain 1 N592A
0.925 DMS score: mean over two replicates of log2(f_test/f_ref + 0.5)/ln 2, minus the synonymous-codon median (not a log2 …	chain 1 V554R
1.28 DMS score: mean over two replicates of log2(f_test/f_ref + 0.5)/ln 2, minus the synonymous-codon median (not a log2 …	chain 1 V554K
0.89 DMS score: mean over two replicates of log2(f_test/f_ref + 0.5)/ln 2, minus the synonymous-codon median (not a log2 …	chain 1 V554Y

screen value	Variant
0.502 DMS score: mean over two replicates of log2(f_test/f_ref + 0.5)/ln 2, minus the synonymous-codon median (not a log2 …	chain 1 V554T
-0.408 DMS score: mean over two replicates of log2(f_test/f_ref + 0.5)/ln 2, minus the synonymous-codon median (not a log2 …	chain 1 V554L
-0.0296 DMS score: mean over two replicates of log2(f_test/f_ref + 0.5)/ln 2, minus the synonymous-codon median (not a log2 …	chain 1 V554I
0.922 DMS score: mean over two replicates of log2(f_test/f_ref + 0.5)/ln 2, minus the synonymous-codon median (not a log2 …	chain 1 A537G
-0.19 DMS score: mean over two replicates of log2(f_test/f_ref + 0.5)/ln 2, minus the synonymous-codon median (not a log2 …	chain 1 L571W
-0.179 DMS score: mean over two replicates of log2(f_test/f_ref + 0.5)/ln 2, minus the synonymous-codon median (not a log2 …	chain 1 L571Q
-0.576 DMS score: mean over two replicates of log2(f_test/f_ref + 0.5)/ln 2, minus the synonymous-codon median (not a log2 …	chain 1 L571D
-0.177 DMS score: mean over two replicates of log2(f_test/f_ref + 0.5)/ln 2, minus the synonymous-codon median (not a log2 …	chain 1 L571C
-1.06 DMS score: mean over two replicates of log2(f_test/f_ref + 0.5)/ln 2, minus the synonymous-codon median (not a log2 …	chain 1 L571R
-2.71 DMS score: mean over two replicates of log2(f_test/f_ref + 0.5)/ln 2, minus the synonymous-codon median (not a log2 …	chain 1 V565R
-0.425 DMS score: mean over two replicates of log2(f_test/f_ref + 0.5)/ln 2, minus the synonymous-codon median (not a log2 …	chain 1 V565Y
-0.833 DMS score: mean over two replicates of log2(f_test/f_ref + 0.5)/ln 2, minus the synonymous-codon median (not a log2 …	chain 1 V565S
-1.23 DMS score: mean over two replicates of log2(f_test/f_ref + 0.5)/ln 2, minus the synonymous-codon median (not a log2 …	chain 1 V565L
0.964 DMS score: mean over two replicates of log2(f_test/f_ref + 0.5)/ln 2, minus the synonymous-codon median (not a log2 …	chain 1 V565W
-0.156 DMS score: mean over two replicates of log2(f_test/f_ref + 0.5)/ln 2, minus the synonymous-codon median (not a log2 …	chain 1 V565D
-0.568 DMS score: mean over two replicates of log2(f_test/f_ref + 0.5)/ln 2, minus the synonymous-codon median (not a log2 …	chain 1 L574M
-2.23 DMS score: mean over two replicates of log2(f_test/f_ref + 0.5)/ln 2, minus the synonymous-codon median (not a log2 …	chain 1 F564H
-1.38 DMS score: mean over two replicates of log2(f_test/f_ref + 0.5)/ln 2, minus the synonymous-codon median (not a log2 …	chain 1 F564Q
-0.283 DMS score: mean over two replicates of log2(f_test/f_ref + 0.5)/ln 2, minus the synonymous-codon median (not a log2 …	chain 1 A546L
-0.986 DMS score: mean over two replicates of log2(f_test/f_ref + 0.5)/ln 2, minus the synonymous-codon median (not a log2 …	chain 1 A546W
-0.272 DMS score: mean over two replicates of log2(f_test/f_ref + 0.5)/ln 2, minus the synonymous-codon median (not a log2 …	chain 1 A546N
-0.317 DMS score: mean over two replicates of log2(f_test/f_ref + 0.5)/ln 2, minus the synonymous-codon median (not a log2 …	chain 1 E575V
0.336 DMS score: mean over two replicates of log2(f_test/f_ref + 0.5)/ln 2, minus the synonymous-codon median (not a log2 …	chain 1 E575Q
-0.949 DMS score: mean over two replicates of log2(f_test/f_ref + 0.5)/ln 2, minus the synonymous-codon median (not a log2 …	chain 1 E575W
-0.328 DMS score: mean over two replicates of log2(f_test/f_ref + 0.5)/ln 2, minus the synonymous-codon median (not a log2 …	chain 1 E575I
